Data reported in publication PMC5724010 (The Journal of Biological Chemistry, 2017).

Tests used:
FplA(20–431) = FplA(20–431) (Fusobacterium nucleatum subsp. nucleatum, UniProt Q8R6F6); format: biochemical, F. nucleatum 25586
[1] = system: CCCC(=O)Oc1ccc2c(C)cc(=O)oc2c1; assay: purified protein, by the assay type; settings: other: Fig. 4C/D, substrate of FplA(20–431), 1 nM enzyme, pH 8.5, 26 °C
Method: (§1) In detail, FplA was used at 1 nM in the reaction, and substrate (50 mM stock in 100% DMSO) dilutions (0–200 μM) and reactions were carried out in reaction buffer (50 mM Tris, pH 8.5, 50 mM NaCl, 0.025% BOG). All samples, including controls, contained equal concentrations of DMSO (0.4%). Reactions were run at 26 °C for 30 min with 3 s of shaking between continuous fluorescent monitoring (excitation = 360 nm, emission = 449 nm) every 2 min on a SpectraMax M5^e plate reader. Relative fluorescence units measured upon cleavage of substrate ester bonds and release of the acyl chain were converted to the concentration of product (4-methylumbeliferone; 4-Mu) created by establishing a standard curve using pure 4-Mu (Sigma-Aldrich).
(§2) The steady-state kinetic parameters for each substrate were determined using GraphPad Prism version 6 (GraphPad Software, La Jolla, CA) by fitting the initial rate data (n = 2) to the Michaelis–Menten equation, (Eq. 1) v=Vmax⁡[S]/(Km+[S]) to obtain the values reported in Fig. 2 and supplemental Fig. S3.

[2] = system: CCCCCCCCCCCCCCCC(=O)Oc1ccc2c(C)cc(=O)oc2c1; assay: purified protein, by the assay type; settings: other: Fig. 4C/D, substrate of FplA(20–431), 1 nM enzyme, pH 8.5, 26 °C
Method: as §1, §2

[3] = system: CCCCCCC(=O)Oc1ccc2c(C)cc(=O)oc2c1; assay: purified protein, by the assay type
Method: as §1, §2

[4] = other: Fig. 4E, 4-MuH as substrate, construct FplA20-431, pH 8.5, 26.0 °C
[5] = other: Fig. 4E, 4-MuH as substrate, construct FplA60-350, pH 8.5, 26.0 °C
[6] = other: Fig. 4E, 4-MuH as substrate, construct FplA20-350, pH 8.5, 26.0 °C
[7] = other: Fig. 4E, 4-MuH as substrate, construct FplA60-431, pH 8.5, 26.0 °C

Chain of FplA(20–431) (Q8R6F6 20-431 limits assumed): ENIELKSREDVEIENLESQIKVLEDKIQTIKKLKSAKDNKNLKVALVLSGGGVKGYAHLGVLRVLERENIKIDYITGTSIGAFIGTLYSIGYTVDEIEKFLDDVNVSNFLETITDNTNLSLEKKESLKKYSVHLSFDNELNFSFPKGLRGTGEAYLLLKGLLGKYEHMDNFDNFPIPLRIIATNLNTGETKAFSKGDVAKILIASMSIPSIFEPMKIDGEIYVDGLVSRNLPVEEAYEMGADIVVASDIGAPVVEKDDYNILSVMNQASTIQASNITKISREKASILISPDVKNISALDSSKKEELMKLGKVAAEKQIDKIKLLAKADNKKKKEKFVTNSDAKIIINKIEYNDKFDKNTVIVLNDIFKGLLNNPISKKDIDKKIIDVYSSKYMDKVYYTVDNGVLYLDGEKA

Molecule: CCCCC/C=C\C/C=C\C/C=C\C/C=C\CCCC(=O)C(F)(F)F [ATFMK, arachidonyl trifluoromethyl ketone]
- Inhibition of FplA, potency in words (FplA(20–431)): potent inhibitors

Molecule: FplA(20–431) (Fusobacterium nucleatum subsp. nucleatum ATCC 25586)
- Km [1]: 500 µM
- Km [2]: 23 µM
- Km ([3]; other: Fig. 4C/D, substrate of FplA(20–431), 1 nM enzyme, pH 8.5, 26 °C): 19 µM
- Km [3, 4]: 19.6 ± 5.0 µM
- kcat [3, 4]: 55 ± 4.0 s⁻¹
- kcat/Km [3, 4]: 2.8e+06 ± 700000 M⁻¹ s⁻¹

Molecule: FplA60-350 (Fusobacterium nucleatum subsp. nucleatum ATCC 25586)
- Km [3, 5]: 17.7 ± 8.4 µM
- kcat [3, 5]: 2.1 ± 0.3 s⁻¹
- kcat/Km [3, 5]: 120000 ± 60000 M⁻¹ s⁻¹

Molecule: FplA20-350 (Fusobacterium nucleatum subsp. nucleatum ATCC 25586)
- Km [3, 6]: 23.5 ± 6.5 µM
- kcat [3, 6]: 75 ± 6.2 s⁻¹

Molecule: FplA60-431 (Fusobacterium nucleatum subsp. nucleatum ATCC 25586)
- Km [3, 7]: 18.2 ± 7.4 µM
- kcat [3, 7]: 2.8 ± 0.3 s⁻¹
- kcat/Km [3, 7]: 150000 ± 60000 M⁻¹ s⁻¹
